{"source": "the DeepSol protein solubility set"}
{"assay": "soluble on expression in E. coli; label from the status in PepcDB or PDB records"}
{"sequence": "MGSDKIHHHHHHLKSAEGSTWNCCPIDWRAFQSNCYFPLTDNKTWAESERNCSGMGAHLMTISTEAEQNFIIQFLDRRLSYFLGLRDENAKGQWRWVDQTPFNPRRVFWHKNEPDNSQGENCVVLVYNQDKWAWNDVPCNFEASRICKIPGTTLN", "soluble on expression in E. coli": "not soluble"}
{"sequence": "MGSDKIHHHHHHMTKEINPFIVTGKIEPEYFCDRVKESERLVKSLTNGNNLVIISPRRMGKTGLIRFCYEKPEIKEEYYTFFIDILHTSSLREFTYLLGKEIYETLLPRSKKMASLFIQTVKSINGKFGFDPLTNLPTFNLELGDIDRPEYTLEEIFQCLIAADKPCIVAIDEFQQIAKYPEKNIEALLRTHIQTIENSNFIFAGSERHMMQEMFLSSSRPFYHSADILELKAIVPEIYIPFIADHFQKRKRHIEIENIEKVYRLFKGHTFYIQKTFNEAFADTPKGKECTLEIIKTAIDNLIAYNDTIFREILSNIPEKQKELLYAIAKVGEAENVTSAKFIKRYSLTSASSVQSATKKLLEKDIITEINKVYSVTDKFFGMWINTIYGNKYTL", "soluble on expression in E. coli": "not soluble"}
{"sequence": "MSLIAHSNEIARPIFKSQDQLFTLYQGDCNEVLPQFENQFDLIFADPPYFLSNDGLSIQSGKIVSVNKGDWDKEDGINGIDEFNYQWINNAKKALKDTGSLLISGTYHNIFSLGCVLQKLDFKILNLITWQKTNPPPNFSCRYLTHSAEQIIWARKSRKHKHVFNYEVLKKINNDKQMRDVWSFPAIAPWEKVNGKHPTQKPLALLVRLLLMASDENSLIGDPFSGSSTTGIAANLLKREFIGIEKESEFIKISMDRKIELDARYKEIRSKIKDLNHQEGHHHHHH", "soluble on expression in E. coli": "not soluble"}
{"sequence": "DVQLLESGPGLVAPSQSLSITCTVSGFSLTNYGVDWVRQPPGKGLEWVGVIWSGGSTNYNSALMSRLSISKDNSKSQVFLKMNSLQTDDTAVYYCAKHWGGYYIPYGMDHWGQGTTVTVSSASTKGPSVFPLAPSSKSTSGGTAALGCLVKDYFPEPVTVSWNSGALTSGVHTFPAVLQSSGLYSLSSVVTVPSSSLGTQTYICNVNHKPSNTKVDKKVEPKSCDKTHT", "soluble on expression in E. coli": "soluble"}
{"sequence": "MSLKDINIGVVLPLTGTVAAYGQDVFNGIELANKLQPKLSNGDVIKLITIDTKGDKLETSNGVNRLIATDKVLGIIGEATTPNTIQAISIAEEKKIPLIAPVASGDKLLDKKKYASRVCFKDSFQGDKFATYVSKDLGLKNAVIIIDQSNVYSLGLARAFENSFKNNGGKIIKKLVINSGDKDFRAVVSQLKSLNPDFVYMPIYHPEAALIARQARQIGFDKLLVAGDGVNNQTFIDLGGSAVNGVIFTDSFDYNSPSTQLGKDFVAAYEKVKGTKELPAFSAMGADAYFVMLNAMNACVDNLSSECINSKIHQTKDFQAVGGVISIDESGNAIRSVVIKEIQNQKQNYKTIINEGHHHHHH", "soluble on expression in E. coli": "soluble"}
{"sequence": "MAHHHHHHMKTLAKKTLQGGVSGKCGSQIIIAHGLLGNSTNWMSVGRRLAAHDGVRGRLEEIHMLDMRNHGESPHFNAHTNATMASDIEHFVLQQQRQWQSRAGAEGDGGIVLIGHSMGGFAVMGSMLRRANETSLLLQSGVEELEQRCKRGDYYGWCDEQGNAAEMRAVNRAMGLPETQPLYDILYDCKGDNVARPPRVKAVVIVDITPSTALGTHRQHGQNSSETLDAMVAADLSRVHSFGDGNAELERVGVSNKAMRDFLLTNLRLDPRTKEATWRCNLPVLRADYNSIALGVSGWFLSASEKVSRDRGGELVAPLRCSLPTLFVFGQNSPYNTPEDRRLIPRFFSNAIEVEVEGAGHFVHYEKMQEFVNVVVPFLTEYL", "soluble on expression in E. coli": "not soluble"}
{"sequence": "MGSDKIHHHHHHMGFVKPFSKINGSIIMVILGLLASACGQSGSETGGLVDANEPVSPQPNLGEQQGVLEQNLPVPNNQQTDYFRVILYGNSHVSGLPSLIQLLINTGVPQVRVEVKNVGGGFLDESYYNDAYQARLTATPWTHAIFQGQKYSQSGTSIYPTTAAQKWLDKAKSLGITPILFPEHPQDGKLEEGEYVYQLHQGITSMQSSCLAPIPLVWERVIQLLPDVHLHAPDGNHASSLGNFLTALVFYEVITGRSADLLPYLSNIAISEQIQSIFGQVVSEVLADKPACPTF", "soluble on expression in E. coli": "not soluble"}
{"sequence": "MAERELYIGVMSGTSLDGVDTALVALQDDNIELLAHHDYPIPADLKQRLLNVCIGQPTTLIAMGELEHDLGHLFSDAVLALLQHSGYRAEHIRAIGCHGQTVFHQPTGTKPFTMQIGDANIIATRTGITTVADFRRKDVALGGQGAPLVPAFHRTIFHAEQSTVVVLNIGGIANISVLKPNGEVVGYDTGPGNMLMDSWCQKERNQPYDKDALWAKQGSVNAALLSHLKQDHYFALPAPKSTGRELFNLPWLETQLATFSVDATDVQRTLCEFTAQTIVEQVAPFAEGPQPQLLVCGGGAQNPLLMERLQALLPSWQVAPTTQMGVDGDNMEAMAFAWLAQRRIHGLPSNLPAVTGASRLASLGVIYYPD", "soluble on expression in E. coli": "not soluble"}
{"sequence": "MGSDKIHHHHHHMIFASDLDQTLIYSRKSFRAHIEDNSIQLIETLDGKEISFITYKTITLLIKLQLHSYFIPVTTRTIEQFQRITLFQNEIIPEYAITSNGGNILHNGKQDVTWNKEIKKRISVECIERNDILKEFEQIAHKDWVISQKTADDLFHYCIIKRENIPYDELSSFTSWLDKQGWNHSLQGRKLYFVPKPINKWDAVQYIQEILQMDTIITAGDSLLDLCMLEKANYAFAPLHGELGATYNHLQPHIVKTDAIGIYAAEEIVSKSLQIIHSSSPTS", "soluble on expression in E. coli": "not soluble"}
{"sequence": "MGHTMPAHTPPAQTAPAAQKAGAQALPVTVQGATVAAVPPSIRDTAAYMTLTNKSDQPIKLVGAATPLATSPMLMTTTHSGGMAGMKMVPWLTIPARGTLTLQRDGDHVMLMGLKRPLKVGETVNITLKATDGRTLNVAATVKKNIEGR", "soluble on expression in E. coli": "soluble"}
{"sequence": "MAGAKHIIDTSFLTQLDRYAIPLSRRVTAVHTGSHQSTRTGAGLDIIDHRKYNQGDSLKRIDWNLYARTEKLYIRRFEEDKNLNMVILLDASSSMLFPDNTPNKFEYAATVAAGVSYIVMKHNDVYTIATFADDVDYTKSHKGRDDFLRTIDNLTQIPVSGTTKLADCADSIYPRIKSKSMVLIMSDFLDNLDSVQKAVNRLSRHELVIVHIYDENEINLPESVDGTVKFIDSETGEEISFTVGAGFKKEYASEYSKHMAELEKIAYDFKIPYFRVSIKNEPFDTVLKIIGEG", "soluble on expression in E. coli": "not soluble"}
{"sequence": "MPKRSKEDTEITIQKIMDAVVDQLLRLGYDKMSYTTLSQQTGVSRTGISHHFPKKTDFTAALDGRIFKMFIEHLEFEKGLDAFSQSWIKALEDSEFLAILRLLFHHIVTSESAHEFAANGIDRLYKMVESQFGSGGDKELEWLIGRSLIQMSK", "soluble on expression in E. coli": "not soluble"}
{"sequence": "MGSDKIHHHHHHMSIVQAKFEAKETSFHVEGYEKIEYDLVYVDGIFEIQNSALADVYQGFGRCLAIVDANVSRLYGNQIQAYFQYYGIELRLFPITITEPDKTIQTFERVIDVFADFKLVRKEPVLVVGGGLITDVVGFACSTYRRSSNYIRIPTTLIGLIDASVAIKVAVNHRKLKNRLGAYHASRKVFLDFSLLRTLPTDQVRNGMAELVKIAVVAHQEVFELLEKYGEELLRTHFGNIDATPEIKEIAHRLTYKAIHKMLELEVPNLHELDLDRVIAYGHTWSPTLELAPRLPMFHGHAVNVDMAFSATIAARRGYITIAERDRILGLMSRVGLSLDHPMLDIDILWRGTESITLTRDGLLRAAMPKPIGDCVFVNDLTREELAAALADHKELCTSYPRGGEGVDVYPVYQKELIGSVK", "soluble on expression in E. coli": "not soluble"}
{"sequence": "MMDFEDFGNPLAGKPLSQADKAAAVLLAMGKGVAGKLLKFFTQHELQMIISSAQTLRVIPPDELAQIVAEFEDLFTEGTGLMDNAKAIESILEEGLTPEEVDSLLGRRAAFQAYEASIWDRLQEAEPEFVGKFLLREHPQTIAYILSMLPSSFGAKVLLTIPEEQRADIMNRTVNMKEVSPTAAQIIEKRVVNLINEIEAERNAGGSTKVADLMNELDKPQVDTLLSSLETLSKEAANKVKPKIFLFDDLMFMPQRSRVLLLNDVSADVLTMALRGATVEIKECVLSSISPRQRRMIESDLAVPQASLNTREVAIARRAVAQEAIRLANSGQIQLKDVAAEEQSAAA", "soluble on expression in E. coli": "not soluble"}
{"sequence": "MIVRSYLYEKLNGDVRCKTCWHRCIIKEGKTGICRVRKNEGGELLVLNYGMASSIALDPIEKKPLNNFKPGSKVLSFGSVSCNFRCLHCQNFEIAFADLDYSYLREIDPDTVLRMCIDRRADGVAWTYNEPAIWHEFALDSSKLVKESGYYVVYVTNGYMTPEAVDQFEGVLDAANVDVKAFSEDFYKKICKAKLEHVLETVEYLHRKGVFVELTYLIIPGENDSREELRDFCRWVADLSPKIPVHFSRFHPDYKMLDKPPTPVEKIEEAVEIAKKEGIEYVYAGNVWGHRYENTYCPNCGELLIEREGFYVYNINLVRDNPPKCPNCGYAQNIIL", "soluble on expression in E. coli": "not soluble"}
